Test results taken from publication PMC9080259, “Dual-cycle immobilization to reuse both enzyme and support by reblossoming enzyme–inorganic hybrid nanoflowers” (RSC Advances, 2018).

Columns and labels:
Assay in all cases: purified protein
purified protein [1] = substrate: CC(=O)Oc1ccc([N+](=O)[O-])cc1; assay type: biochemical, Moesziomyces antarcticus; details: free enzyme, PBS 100 mM pH 6.5, 37 °C, substrate of the kinetics taken from the activity assay
purified protein [2] = substrate: CCOC(=O)[C@H](CCCNC(=N)N)NC(=O)c1ccccc1; details: free enzyme, 37 °C, pH not told, substrate of the kinetics taken from the activity assay
purified protein [3] = substrate: CC(=O)Oc1ccc([N+](=O)[O-])cc1; assay type: biochemical, Thermomyces lanuginosus; details: free enzyme, PBS 100 mM pH 6.5, 37 °C, substrate of the kinetics taken from the activity assay

B1: Lipase B from Candida antarctica (CALB) (Moesziomyces antarcticus) (protein)
chain: LPSGSDPAFSQPKSVLDAGLTCQGASPSSVSKPILLVPGTGTTGPQSFDSNWIPLSTQLGYTPCWISPPPFMLNDTQVNTEYMVNAITALYAGSGNNKLPVLTWSQGGLVAQWGLTFFPSIRSKVDRLMAFAPDYKGTVLAGPLDALAVSAPSVWQQTTGSALTTALRNAGGLTQIVPTTNLYSATDEIVQPQVSNSPLDSSYLFNGKNVQAQAVCGPLFVIDHAGSLTSQFSYVVGRSALRSTTGQARSADYGITDCNPLPANDLTPEQKVAAAALLAPAAAAIVAGPKQNCEPDLMPYARPFAVGKRTCSGIVTP
Km (purified protein [1]): 6.36 ± 0.321 mM
kcat (purified protein [1]): 56.8 ± 2.73 s⁻¹
kcat/Km (purified protein [1]): 8920 ± 23 M⁻¹ s⁻¹

B2: Papain (Carica papaya) (protein)
chain: IPEYVDWRQKGAVTPVKNQGSCGSCWAFSAVVTIEGIIKIRTGNLNEYSEQELLDCDRRSYGCNGGYPWSALQLVAQYGIHYRNTYPYEGVQRYCRSREKGPYAAKTDGVRQVQPYNEGALLYSIANQPVSVVLEAAGKDFQLYRGGIFVGPCGNKVDHAVAAVGYGPNYILIKNSWGTGWGENGYIRIKRGTGNSYGVCGLYTSSFYPVKN
Km (purified protein [2]): 1.01 ± 0.05 mM
kcat (purified protein [2]): 2.67 s⁻¹
kcat/Km (purified protein [2]): 2670 M⁻¹ s⁻¹

B3: Lipase from Thermomyces lanuginosus (TLL) (Thermomyces lanuginosus) (protein)
chain: EVSQDLFNQFNLFAQYSAAAYCGKNNDAPAGTNITCTGNACPEVEKADATFLYSFEDSGVGDVTGFLALDNTNKLIVLSFRGSRSIENWIGNLNFDLKEINDICSGCRGHDGFTSSWRSVADTLRQKVEDAVREHPDYRVVFTGHSLGGALATVAGADLRGNGYDIDVFSYGAPRVGNRAFAEFLTVQTGGTLYRITHTNDIVPRLPPREFGYSHSSPEYWIKSGTLVPVTRNDIVKIEGIDATGGNNQPNIPDIPAHLWYFGLIGTCL
Km (purified protein [3]): 16.58 ± 0.793 mM
kcat (purified protein [3]): 29.3 ± 1.26 s⁻¹
kcat/Km (purified protein [3]): 1770 ± 8 M⁻¹ s⁻¹
